Experiment [1] addresses T1, Human cytosolic isoleucyl-tRNA synthetase (human, UniProt P41252 1-1262).
T1 construct: human cytosolic isoleucyl-tRNA synthetase (IRS), gene cloned from the cDNA of HEK293 cells; also called IRS; source: recombinant from a modified pET28b, purified (Ni-NTA, gel filtration)
T1 sequence (looked up): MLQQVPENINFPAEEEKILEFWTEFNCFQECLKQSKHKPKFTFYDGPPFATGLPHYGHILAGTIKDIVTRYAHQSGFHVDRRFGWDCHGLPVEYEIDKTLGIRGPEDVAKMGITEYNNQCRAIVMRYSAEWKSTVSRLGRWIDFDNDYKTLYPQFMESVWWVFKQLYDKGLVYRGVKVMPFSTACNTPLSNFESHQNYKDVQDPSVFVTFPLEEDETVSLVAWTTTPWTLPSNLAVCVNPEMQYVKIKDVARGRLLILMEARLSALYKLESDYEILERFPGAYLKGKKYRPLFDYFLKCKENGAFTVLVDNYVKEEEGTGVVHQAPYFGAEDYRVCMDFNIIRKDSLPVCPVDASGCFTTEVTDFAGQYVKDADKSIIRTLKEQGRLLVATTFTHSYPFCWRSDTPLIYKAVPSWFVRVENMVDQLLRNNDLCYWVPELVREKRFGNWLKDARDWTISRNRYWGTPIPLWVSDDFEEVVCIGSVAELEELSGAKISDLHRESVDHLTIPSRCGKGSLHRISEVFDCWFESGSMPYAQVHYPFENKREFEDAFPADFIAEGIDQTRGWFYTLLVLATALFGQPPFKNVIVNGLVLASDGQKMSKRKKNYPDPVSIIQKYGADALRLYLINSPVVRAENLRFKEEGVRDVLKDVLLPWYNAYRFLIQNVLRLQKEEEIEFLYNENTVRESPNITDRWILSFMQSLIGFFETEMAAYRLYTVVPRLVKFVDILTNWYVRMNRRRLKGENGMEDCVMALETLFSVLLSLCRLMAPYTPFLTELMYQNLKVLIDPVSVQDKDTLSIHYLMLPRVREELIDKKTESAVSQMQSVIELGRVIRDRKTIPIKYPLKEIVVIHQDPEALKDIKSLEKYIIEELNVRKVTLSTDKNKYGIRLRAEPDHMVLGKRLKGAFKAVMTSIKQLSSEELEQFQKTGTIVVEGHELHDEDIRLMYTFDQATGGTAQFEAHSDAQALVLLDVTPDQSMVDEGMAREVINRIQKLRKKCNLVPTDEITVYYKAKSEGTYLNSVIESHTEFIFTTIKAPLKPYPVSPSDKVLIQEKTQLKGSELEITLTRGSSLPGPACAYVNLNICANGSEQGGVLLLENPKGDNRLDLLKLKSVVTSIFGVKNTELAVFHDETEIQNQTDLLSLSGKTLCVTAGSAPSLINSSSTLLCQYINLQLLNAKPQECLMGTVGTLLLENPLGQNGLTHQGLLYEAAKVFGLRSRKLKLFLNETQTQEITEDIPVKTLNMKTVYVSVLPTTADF
Briefly: SEC; purified hcLRS (or hcLRS_d106) incubated with each partner separately for 4 h, then run on gel filtration; protein incubated with buffer as control. Particulars: both partners purified. In general terms: In gel filtration, larger molecules generally elute earlier.

Experiment [2] has as its target T2, MRS-AIMP3 complex (human cytosolic methionyl-tRNA synthetase co-expressed with AIMP3) (human, UniProt P56192 1-900; O43324 1-174).
T2 construct: human cytosolic methionyl-tRNA synthetase (MRS), gene cloned from the cDNA of HEK293 cells; Only MRS carries the Flag tag; It is the bait of the anti-Flag pull-down of the assembled MSC; source: co-expressed from a modified pETDuet-1, purified (Ni-NTA, gel filtration); not shown: Flag, C-terminal, kept
T2 sequence (looked up) 1: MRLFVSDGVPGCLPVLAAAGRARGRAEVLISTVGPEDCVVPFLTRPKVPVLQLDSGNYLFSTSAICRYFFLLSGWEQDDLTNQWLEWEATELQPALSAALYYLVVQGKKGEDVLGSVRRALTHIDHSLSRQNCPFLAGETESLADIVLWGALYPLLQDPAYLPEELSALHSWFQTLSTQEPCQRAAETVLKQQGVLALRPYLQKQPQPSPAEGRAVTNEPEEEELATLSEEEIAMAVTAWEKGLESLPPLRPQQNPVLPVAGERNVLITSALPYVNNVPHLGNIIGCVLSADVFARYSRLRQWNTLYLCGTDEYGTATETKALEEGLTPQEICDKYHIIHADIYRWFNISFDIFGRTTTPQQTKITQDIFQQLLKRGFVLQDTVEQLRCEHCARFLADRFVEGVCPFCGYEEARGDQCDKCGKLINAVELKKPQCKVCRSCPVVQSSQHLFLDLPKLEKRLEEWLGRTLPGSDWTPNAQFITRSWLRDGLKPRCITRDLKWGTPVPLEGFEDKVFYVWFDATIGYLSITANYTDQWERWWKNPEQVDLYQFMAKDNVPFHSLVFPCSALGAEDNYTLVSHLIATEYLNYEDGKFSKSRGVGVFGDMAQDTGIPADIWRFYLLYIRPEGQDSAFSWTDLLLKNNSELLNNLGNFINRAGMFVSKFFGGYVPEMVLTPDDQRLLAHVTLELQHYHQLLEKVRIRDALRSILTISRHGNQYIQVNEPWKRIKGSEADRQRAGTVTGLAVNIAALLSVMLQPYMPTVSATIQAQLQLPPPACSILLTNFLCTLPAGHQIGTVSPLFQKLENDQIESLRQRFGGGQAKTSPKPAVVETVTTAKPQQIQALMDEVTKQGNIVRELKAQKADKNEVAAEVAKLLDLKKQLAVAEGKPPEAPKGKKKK
T2 sequence (looked up) 2: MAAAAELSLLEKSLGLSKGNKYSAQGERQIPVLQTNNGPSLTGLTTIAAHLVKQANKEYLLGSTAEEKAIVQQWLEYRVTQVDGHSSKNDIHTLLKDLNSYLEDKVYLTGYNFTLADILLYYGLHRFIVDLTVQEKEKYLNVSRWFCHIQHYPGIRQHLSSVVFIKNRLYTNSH
Put plainly: pull-down; in vitro assembly of the MSC as in a2 but lacking IRS; anti-Flag beads on MRS-Flag. Particulars: both partners purified.

B1: Human cytosolic leucyl-tRNA synthetase, full length (enzyme)
chain: not shown
notes: human cytosolic leucyl-tRNA synthetase, UniProt Q9P2J5, 1176 residues; also called hcLRS; FL-hcLRS; source: recombinant from pET16b-hcLRS, purified (Ni-NTA, gel filtration)
In the case of B1, the binding result in experiment [1] is reported as “binds”.

B2: Human cytosolic aspartyl-tRNA synthetase (enzyme, UniProt P14868 1-501, looked up)
chain: MPSASASRKSQEKPREIMDAAEDYAKERYGISSMIQSQEKPDRVLVRVRDLTIQKADEVVWVRARVHTSRAKGKQCFLVLRQQQFNVQALVAVGDHASKQMVKFAANINKESIVDVEGVVRKVNQKIGSCTQQDVELHVQKIYVISLAEPRLPLQLDDAVRPEAEGEEEGRATVNQDTRLDNRVIDLRTSTSQAVFRLQSGICHLFRETLINKGFVEIQTPKIISAASEGGANVFTVSYFKNNAYLAQSPQLYKQMCICADFEKVFSIGPVFRAEDSNTHRHLTEFVGLDIEMAFNYHYHEVMEEIADTMVQIFKGLQERFQTEIQTVNKQFPCEPFKFLEPTLRLEYCEALAMLREAGVEMGDEDDLSTPNEKLLGHLVKEKYDTDFYILDKYPLAVRPFYTMPDPRNPKQSNSYDMFMRGEEILSGAQRIHDPQLLTERALHHGIDLEKIKAYIDSFRFGAPPHAGGGIGLERVTMLFLGLHNVRQTSMFPRDPKRLTP
notes: human cytosolic DRS, gene cloned from the cDNA of HEK293 cells; also called DRS; source: recombinant from a modified pET28b, purified (Ni-NTA, gel filtration)
As for B2, the binding result in experiment [2] was “binds”.

B3: Human cytosolic arginyl-tRNA synthetase (enzyme, UniProt P54136 1-660, looked up)
chain: MDVLVSECSARLLQQEEEIKSLTAEIDRLKNCGCLGASPNLEQLQEENLKLKYRLNILRKSLQAERNKPTKNMINIISRLQEVFGHAIKAAYPDLENPPLLVTPSQQAKFGDYQCNSAMGISQMLKTKEQKVNPREIAENITKHLPDNECIEKVEIAGPGFINVHLRKDFVSEQLTSLLVNGVQLPALGENKKVIVDFSSPNIAKEMHVGHLRSTIIGESISRLFEFAGYDVLRLNHVGDWGTQFGMLIAHLQDKFPDYLTVSPPIGDLQVFYKESKKRFDTEEEFKKRAYQCVVLLQGKNPDITKAWKLICDVSRQELNKIYDALDVSLIERGESFYQDRMNDIVKEFEDRGFVQVDDGRKIVFVPGCSIPLTIVKSDGGYTYDTSDLAAIKQRLFEEKADMIIYVVDNGQSVHFQTIFAAAQMIGWYDPKVTRVFHAGFGVVLGEDKKKFKTRSGETVRLMDLLGEGLKRSMDKLKEKERDKVLTAEELNAAQTSVAYGCIKYADLSHNRLNDYIFSFDKMLDDRGNTAAYLLYAFTRIRSIARLANIDEEMLQKAARETKILLDHEKEWKLGRCILRFPEILQKILDDLFLHTLCDYIYELATAFTEFYDSCYCVEKDRQTGKILKVNMWRMLLCEAVAAVMAKGFDILGIKPVQRM
notes: human cytosolic RRS, gene cloned from the cDNA of HEK293 cells; also called RRS; source: recombinant from a modified pET28b, purified (Ni-NTA, gel filtration)
Consider B3, for which the binding result in experiment [2] was “binds”.

B4: AaRS-interacting multi-functional protein 1 (natural protein, human, UniProt Q12904 1-312, looked up)
chain: MANNDAVLKRLEQKGAEADQIIEYLKQQVSLLKEKAILQATLREEKKLRVENAKLKKEIEELKQELIQAEIQNGVKQIPFPSGTPLHANSMVSENVIQSTAVTTVSSGTKEQIKGGTGDEKKAKEKIEKKGEKKEKKQQSIAGSADSKPIDVSRLDLRIGCIITARKHPDADSLYVEEVDVGEIAPRTVVSGLVNHVPLEQMQNRMVILLCNLKPAKMRGVLSQAMVMCASSPEKIEILAPPNGSVPGDRITFDAFPGEPDKELNPKKKIWEQIQPDLHTNDECVATYKGVPFEVKGKGVCRAQTMSNSGIK
notes: human AIMP1, gene cloned from the cDNA of HEK293 cells; also called AIMP1; source: recombinant from a modified pET28b, purified (Ni-NTA, gel filtration)
Turning to B4, in experiment [2], the binding result is listed as “binds”.

B5: Human cytosolic glutaminyl-tRNA synthetase (enzyme, UniProt P47897 1-775, looked up)
chain: MAALDSLSLFTSLGLSEQKARETLKNSALSAQLREAATQAQQTLGSTIDKATGILLYGLASRLRDTRRLSFLVSYIASKKIHTEPQLSAALEYVRSHPLDPIDTVDFERECGVGVIVTPEQIEEAVEAAINRHRPQLLVERYHFNMGLLMGEARAVLKWADGKMIKNEVDMQVLHLLGPKLEADLEKKFKVAKARLEETDRRTAKDVVENGETADQTLSLMEQLRGEALKFHKPGENYKTPGYVVTPHTMNLLKQHLEITGGQVRTRFPPEPNGILHIGHAKAINFNFGYAKANNGICFLRFDDTNPEKEEAKFFTAICDMVAWLGYTPYKVTYASDYFDQLYAWAVELIRRGLAYVCHQRGEELKGHNTLPSPWRDRPMEESLLLFEAMRKGKFSEGEATLRMKLVMEDGKMDPVAYRVKYTPHHRTGDKWCIYPTYDYTHCLCDSIEHITHSLCTKEFQARRSSYFWLCNALDVYCPVQWEYGRLNLHYAVVSKRKILQLVATGAVRDWDDPRLFTLTALRRRGFPPEAINNFCARVGVTVAQTTMEPHLLEACVRDVLNDTAPRAMAVLESLRVIITNFPAAKSLDIQVPNFPADETKGFHQVPFAPIVFIERTDFKEEPEPGFKRLAWGQPVGLRHTGYVIELQHVVKGPSGCVESLEVTCRRADAGEKPKAFIHWVSQPLMCEVRLYERLFQHKNPEDPTEVPGGFLSDLNLASLHVVDAALVDCSVALAKPFDKFQFERLGYFSVDPDSHQGKLVFNRTVTLKEDPGKV
notes: human cytosolic QRS, gene cloned from the cDNA of HEK293 cells; also called QRS; source: recombinant from a modified pET28b, purified (Ni-NTA, gel filtration)
For B5, the binding result in experiment [2] is “binds”.

The values above are taken from article PMC7229842, “Molecular basis of the multifaceted functions of human leucyl-tRNA synthetase in protein synthesis and beyond” (Nucleic Acids Research, 2020).
